From US20030104423

Biological target: σ70, native, untagged (pLN12) (UniProt P00579)
Sequence (P00579 whole entry): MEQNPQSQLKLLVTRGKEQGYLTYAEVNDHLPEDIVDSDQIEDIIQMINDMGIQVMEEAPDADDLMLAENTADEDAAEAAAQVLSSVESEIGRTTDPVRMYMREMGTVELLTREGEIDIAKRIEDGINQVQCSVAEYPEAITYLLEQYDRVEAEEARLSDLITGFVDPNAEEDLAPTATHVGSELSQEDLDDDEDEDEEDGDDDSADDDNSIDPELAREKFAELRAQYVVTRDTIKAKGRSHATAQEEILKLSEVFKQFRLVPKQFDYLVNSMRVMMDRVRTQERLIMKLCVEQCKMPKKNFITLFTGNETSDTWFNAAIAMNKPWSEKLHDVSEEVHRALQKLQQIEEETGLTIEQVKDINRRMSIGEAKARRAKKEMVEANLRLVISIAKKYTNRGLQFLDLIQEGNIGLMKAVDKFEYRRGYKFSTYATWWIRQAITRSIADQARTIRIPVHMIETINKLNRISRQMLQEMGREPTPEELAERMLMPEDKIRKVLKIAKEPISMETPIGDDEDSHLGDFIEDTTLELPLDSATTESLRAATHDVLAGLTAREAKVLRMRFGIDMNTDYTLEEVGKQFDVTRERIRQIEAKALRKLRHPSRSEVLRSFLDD

Substance: β′ 1-1407 wild type with C-terminal His6 (pTA577)
- Growth at 42° C. with plasmid β′ as sole source of β′ (strain RL602): +
